# No end group written: not given here. fluorescein = fluorescein label
# B1: fluorescein-labeled SSB C-terminal peptide (peptide)
# peptide: fluorescein-MDFDDDIPF
# notes: also called flu-CTP; labeled C-terminal peptide
# Molecular target: T1, Escherichia coli single-stranded DNA binding (SSB) protein, wild type (E. coli, UniProt P0AGE0 1-178)
# T1 construct: E. coli SSB, wild type; OB domain aa 1-112, IDL aa 113-177 with the CTP aa 169-177; homotetramer of 19-kDa subunits; Construct as described in Harami et al. (2020); also called SSB-WT; WT; source: E. coli ER2566, purified (Polymin P, ammonium sulfate, heparin, MonoQ)
# Assay: fluorescence polarisation; 15 nM flu-CTP titrated with SSB or SSBdC; standard LLPS buffer (20 mM Tris-OAc pH 7.5, 50 mM KGlu, 5 mM Mg(OAc)2), no PEG; 25°C; quadratic binding equation
# Conditions: both partners purified
# T1 sequence (P0AGE0 whole entry, the tested form may be a part): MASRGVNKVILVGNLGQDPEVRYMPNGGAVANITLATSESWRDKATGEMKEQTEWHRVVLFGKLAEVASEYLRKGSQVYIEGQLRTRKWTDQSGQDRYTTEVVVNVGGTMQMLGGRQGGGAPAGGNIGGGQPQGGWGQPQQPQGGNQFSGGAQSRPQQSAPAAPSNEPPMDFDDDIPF
binder,measurement,value
B1,Kd,> 100 µM

# Source: article PMC11947617, “Fine‐tuned interactions between globular and disordered regions of single‐stranded DNA binding (SSB) protein are required for dynamic condensation under physiological conditions” (Protein Science : A Publication of the Protein Society, 2025)
